Assay results as given in patent US20110171231A1 (published 2011).

T1: recombinant mouse PlGF-2 (mouse, UniProt P49764 24-158, limits assumed)
T1 sequence (looked up): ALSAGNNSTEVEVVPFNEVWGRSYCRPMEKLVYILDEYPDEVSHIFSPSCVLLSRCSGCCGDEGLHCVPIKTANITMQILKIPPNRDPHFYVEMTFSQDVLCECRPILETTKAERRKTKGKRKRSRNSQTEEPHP

T2: human PlGF-2 (human, UniProt P49763-3 19-170)
T2 construct: Panning used human PlGF residues 19-116 and human PlGF-1; also called hPlGF-2; hPlGF
T2 sequence (looked up): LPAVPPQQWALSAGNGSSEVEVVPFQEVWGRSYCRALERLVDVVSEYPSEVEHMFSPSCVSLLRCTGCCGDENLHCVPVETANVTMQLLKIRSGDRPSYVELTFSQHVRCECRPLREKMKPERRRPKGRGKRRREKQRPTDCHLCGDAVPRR


Legend:
recombinant mouse PlGF-2 [1] = target: T1, recombinant mouse PlGF-2; experiment: competition ELISA on mPlGF-coated plate; blocked ligand: biotinylated NRP-2
Method: The ability of the anti-PlGF Mabs C9.V2 and 7A10 to block the interaction between PlGF and its co-receptors NRP-1 and NRP-2 (Gluzman-Poltorak et al., 2000; Mamluk et al., 2002) was also tested. For PlGF/NRP1 and PlGF/NRP2 competition binding assays, Microtiter plates (Nunc, Rochester, N.Y., USA) were coated with recombinant mouse PlGF (BioVision, Mountain View, Calif., USA) either at 2 μg/mL (for PlGF/NRP1 binding) or at 4 ug/mL (for PlGF/NRP2 binding) in PBS. After an overnight incubation at 4° C., assay plates were washed with wash buffer (PBS/0.05% Tween 20) and treated with block buffer (PBS/0.5% BSA) for 1 to 2 hours. Samples were serially diluted in sample diluent (PBS/0.5% BSA/15 ppm Proclin/0.05% Tween 20/0.2% BGG/0.25% CHAPS/5 mM EDTA/0.3 M NaCl, pH7.4) containing 0.25 ug/mL of heparin (Sigma, St. Louis, Mo., US) and incubated in the presence of either 100 ng/mL of biotin-mouse
NRP1-Fc (0.66 nM for PlGF/NRP1 binding) or 425 ng/mL of biotin-NRP2-Fc (6 nM for PlGF/NRP2-binding). After incubation for 2 hours, assay plates were washed 6 times with wash buffer and then incubated for 45 to 60 minutes with AMDEX streptavidin-HRP (GE Healthcare, Pittsburgh, Pa., USA) diluted 10,000 folds in assay buffer (PBS/0.5% BSA/0.05% Tween 20, pH7.4). […] Absorbance was measured at 450 nm against a reference wavelength of 620 nm.

recombinant mouse PlGF-2 [2] = target: T1, recombinant mouse PlGF-2; experiment: cell-based or functional assay
recombinant mouse PlGF-2 [3] = target: T1, recombinant mouse PlGF-2; experiment: Biacore, anti-mouse Fc chip
human PlGF-2 = target: T2, human PlGF-2; experiment: Biacore, anti-mouse Fc chip

IC50 (read off the curve) (recombinant mouse PlGF-2 [1]) [pM] | calculated IC50 (PlGF-induced migration of 67NR-VEGFR-1 cells, FIG. 2) (recombinant mouse PlGF-2 [2]) [pM] | Kd (recombinant mouse PlGF-2 [3]) [pM] | Kd (human PlGF-2) [pM] | Molecule
4000 | – | – | – | mFLT1(1-3)-IgG (from UniProt P35969) (Fc fusion)
~4000 | 800 | 900 | 800 | anti-PlGF monoclonal antibody C9.V2 (antibody, mouse IgG2a, V domains shown, also called C9v2.9; anti-PlGF MAb C9v2) VH: EVQLVESGGGLVQPGGSLRLSCAASGFTFTNTWISWVRQAPGKGLEWVGSITPANGYTNYADSVKGRFTISADTSKNTAYLQMNSLRAEDTAVYYCARAVYPWFFAYWGQGTLVTVSS VL: DIQMTQSPSSLSASVGDRVTITCRASQYVSHAVAWYQQKPGKAPKLLIYSASFLYSGVPSRFSGSGSGTDFTLTISSLQPEDFATYYCQSAYTPPTTFGQGTKVEIK
